Usually stoichiometry N stands for a count of units in the complex or per binding partner.

The source of these data is publication PMC3646564 (Cell, 2013).

In data set [1] the target is D. radiodurans PNPase lacking the KH domain (D. radiodurans) (UniProt Q9RSR1). Put plainly: native gel or EMSA + other: negative stain electron microscopy.
Data set [2] has as its target D. radiodurans PNPase lacking the S1 domain (D. radiodurans) (UniProt Q9RSR1). Described as above.
Data set [3] deals with the molecule itself. Nature of the data set: glycerol gradient sedimentation.

Turning to “D. radiodurans PNPase lacking the KH domain (from UniProt Q9RSR1 1-779) (enzyme)”, the stoichiometry N in data set [1] is 3.
In the case of “D. radiodurans PNPase lacking the S1 domain (from UniProt Q9RSR1 1-779) (enzyme)”, the stoichiometry N in data set [2] is 3.

B1: Salmonella Typhimurium PNPase fused to 3 copies of FLAG (FLAG3-pnp) (enzyme, S. Typhimurium, UniProt Q8ZLT3 1-711, looked up)
chain: MLNPIVRKFQYGQHTVTLETGMMARQATAAVMVSMDDTAVFVTVVGQKKAKPGQDFFPLTVNYQERTYAAGRIPGSFFRREGRPSEGETLIARLIDRPVRPLFPEGFVNEVQVIATVVSVNPQVNPDIVAMIGASAALSLSGIPFNGPIGAARVGYINDQYVLNPTQDELKESKLDLVVAGTEAAVLMVESEAELLSEDTMLGAVVFGHEQQQVVIQAINDLVKEAGKPRWDWQPEAVNDALNARVAALAESRLSDAYRITDKQERYAQVDVIKSETIEQLIAEDETLDANELGEILHAIEKNVVRSRVLAGEPRIDGREKDMIRGLDVRTGVLPRTHGSALFTRGETQALVTATLGTARDAQVLDELMGERTDSFLFHYNFPPYSVGETGMVGSPKRREIGHGRLAKRGVLAVMPDMDKFPYTVRVVSEITESNGSSSMASVCGASLALMDAGVPIKAAVAGIAMGLVKEGDNYVVLSDILGDEDHLGDMDFKVAGSRDGISALQMDIKIEGITKEIMQVALNQAKGARLHILGVMEQAINAPRGDISEFAPRIHTIKISTDKIKDVIGKGGSVIRALTEETGTTIEIEDDGTVKIAATDGEKAKYAIRRIEEITAEIEVGRIYNGKVTRIVDFGAFVAIGGGKEGLVHISQIADKRVEKVTDYLQMGQEVPVKVLEVDRQGRVRLSIKEATEQSQPAAAPEAPASEQAE
On to B1, for which the “stoichiometry N” value in data set [3] is 3.
